In a protein production outcome set (Wang et al. 2014) one finds protein production data, which are given here for 24 sequences.

A short description of the data set: label from the status in PepcDB records.
Consider “MYLKRSDGPSPGTLSLAARLTVLSTLATTGVLLFAIVFQFLALVSDLEFEDNDFIIDKIRVIEAIIVRYPEDRVHLEQEVQWEGSMREDSRYLVRIADARKNIIMETRGMDRIAPPAMFPRPARDTHAIGRGKKLKTPEGRVYLVNAAWTDGGRAPDSRQIQVALDVTEEEEMLEGYKQKMAFVFLAGLFLSAGLNVVVVRRGLRPLVQLTETAGRIDVTTLHERIDARVWPRELARFAAAFDAMLTRLESSFERLESSSANLAHEIRTPLNILRGEAEVTLSRARSPEEYRRVIESSLEEYERLSRLIDNILFLARAEQRIEPVPLDAGHELELLQDYYGTLAEEKGIAISCTGEGTISADPLLFQRAVGNVLSNAIRYTPAGGTITVSIDRADDGAALLTVIDTGIGISADDLPRVFDRFYRSSEARTLNAQGTGLGLAIVRSIMELHRGSVTIDSAPGRGTAVTLRFPLASQ”, for which the protein production result was “failed”. The result for “MYLRRFYDEGLAHASYLVGCQETGEACVIDPARDVEPYLLTAKREGLRIVAALETHIHADFVSGAREMADRAGAAICVSDEGPPEWKSEYVKAYPHRLLKDGDELHFGNVRIVVMHTPGHTPEHVSYLLYDGKTSPDVPMALFSGDFVFVGDVGRPDLLERVAGESGSSEALARQMFRSLRKFEALPDHVQVLPAHGAGSACGKALGAVPSSTVGYEKLVNWALQHKDEDAFVQALLAGQPEAPIYFARMKLVNKVGPRLLAELGAPERVDLPPERVRAWREGGVVLDVRPADAFAKRHLAGSLNIPWNKSFVTWAGWLLPADRPIHLLAADAIAPDVIRALRSIGIDDVVDWTDPAAVDRAAPDDVASYANVSPDEVRGALAQQGLWLLDVRNVDEWAGGHLPQAHHIPLSKLAAHIHDVPRDGSVCVYCRTGGRSAIAASLLRAHGVGDVRNMVGGYEAWRGKGFPVEA” reads “not failed”; that for “MYNREGIQGHILSFIDFSKASTFLDIGCGKGNDLIEISNRTCKEAKLYGVDVKANLIEFAKMQTEGDCRFTFNVYDVEDGLKFEDESIDVIISCNVLECIKNKSKLLHEIHRVLKPDGKIIMAHFDWDTQIFNAFDKNLYRKLIHTYSDWQQPWMNDCDAWMGRRISGVFNETGLFSGNIFTYVVTESEYKEGFRGYSLINEEFKALVEKGIIKNTEFELFKDQIIQLEKTGHYFYSVNLYTYVGQKK”, “failed”. The result for “MYRDIATKLVAAIQDGIFTVKLPTEAQLMERYQASRNTIRKAIDLVYQQGLLRRVQGSGYYITNIQLQHKTVVNLSARSLFNSHVHPRTLTSKILTFDTIHGDSALSRKLNIPVDEELYRIIRLRYWHDQLYCLEKAYYLRSVVPYLSTEAVNTSIWDFINEAYGIGIANSDDYLSLTNLNKEEAELMNLAQGATHLALDSCNYYKNNGLLDFSHTIFVYPDLALYFHTTNLANN” reads “failed”.

Regarding “MYREFYGLTEKPFSKTPDPRYLFLSRGHREALARLQYAVEERELALLTGDIGCGKTTISRALMDAVGNDGCFCFIVNPRLSAVEFLRTVARSLGIAEPAAAKDELLRQLTEAVYRLEGEKRCPVIIIDEAQLIPDQEVFDEIRLLTNFQLDDRNLMSVILMGQPELRQILSEPAHEALRQRIAMHYHLQPLSLEETLEYVDFRVEVAGGPQGLFSPDAIRRIYELSGGVPRKINILATNALLVGFGKDSAWIDASLVEELRDEASLYLEHHHHHH”, the protein production result is “failed”.

As to “MYSALLNADIRIYGYLRASTDEQDASRAKNELMLFAEQMGFQVACWFEENESGAQLKRPELFRLLDIAISGDVILVEQVDRISRLNTQDWEKLKLMINKKGLKVVSLDLPTSYQFMSNTDDFTERMLSALNGMMLDMLAAVARKDYEDRRRRQAQGVQRAKLEGKYKGRPINTKLHNKIEGLLRENKSYSQIENLLGCSRHTISKVSKLIKSSIG”, the protein production result is listed as “failed”. Take “MYSKIEGSIITARFDKETDFFTDLVDLCNKYEVKSGTVLWAIGMLKEFQIGYWNGNDYEKETFRERLELVSLHGSIAENDPRFHIHAAGARGNHGIVGGHLFSAKVDPLVEIQIMKITGFSMSRELDNSDGLYKLVIKLEHHHHHH”: the protein production result is reported as “failed”. In the case of “MYSNSKCNKFLMYFIFIIFLFCSCQTFYPKNSPEFSFIENSGKNFVWEKLTEGIFLSHIKYEDYPLIIHAVKIDLTNPKLKIVVTEPALFNSKGMVKRETTLSFARRHNTVIALNAAFFNVISFSFSLRGEPLGIHIDKKINLSKPFPKYGALCFLDDNSAFIIESQNTEDIKADIEYAVSGNRIILKNGKPIITNISKKENSRTCVGLADGGKTLYLFFAEGENKKKSRGITYDQAHFFMKKLGAQDAIHLDGGGSSSLIIKKENSFFVQVPSISHFGLRKVVTNLGFIIED”, the protein production entry is recorded as “failed”.

For the sequence “MYSPFEILYLAIIIDSLSYTIGALLYGSPIPVRGFKEMGHKMIVNSIYVAVLANIFGLILSILSQLQNIVGANWSTFYLDIGLLQIQTGVAINMGKFLYGIIALILYYFKVPSQFYSLVTPLLQYISFLTDILILLNFYMDLGIFIQSSYMVLIAIGILLMALPFQMGKGIGAMLISFTIVFYVGLPLLPILISNSSPLQNQNFVLQDISLQTEEFYAQIPALFYSFILIPLTYVGVLVGFSVVLQSFIGGYVGRLPIPVEI”, the protein production entry is reported as “failed”. For “MYSYADRIRAVALYIKLGLRVRATIRQLGYPTKNALKGWYQHYLKHQDLPASQAPRAPKYSLQQRQVAIAHYLAHDRCIAATMRALGYPGRGTLTAWVRQDCPDTCKSRVGRSWPATKPDALMCEGVVQLCARRSSAQQIADKLGVCRGTLYNWKNQLLGPCAPASMKHSPKRSPVLDEAALRRQVESLRQDVRRLKIERELLKQAHEILKNGADIDLHRLANKDKAVLVEALHGQYELPELLSLVGLARSSYFYHRARLKLADKYVDLRRSITEIFDNNYRCYGYRRVQASLLKECTGISEKVVRRLMKQEGLIVAKPKRRRYNSYLGEIGAAPQNLINRDFRAAAPNEKWLTDITELQIPAGKVYLSPVIDCFDGLVVSWSIGTHPNAHLVNTMLDAAIDAVQGSESRPVIHSDRGAHYRWPGWLSRVHDAKLTRSMSRKGCSPDNAACEGFFGRLKMELFYPNNWQSTTIEQFIEAVDAYIRWYNEKRIKVSLGRLSPVEYRHKLGLAA”, the protein production result is listed as “failed”.

Regarding “MYSYADRLRAVELYIRLGKRLNTTIRQLGYPTKNALRGWYREYVQHLDLRTQPVARAPKYSEAQRQAALEHFRTHDRCISGTMRALGYPGRGTLTAWVREAFPEARTSMVGRSWHPGYSEEVRQAGVIGLCSGDESAQQVADRLGVSRPTLYSWKDQLLGHEASSSMKRRKANPKVPEREELERKLEALQRDVRQLQLEHDLLKKANELLKKGLGVDLLILSNREKTQLIDALKEVYRLPELLAQLRIARSSYFYHRARMCLADKYAAVRLSLAEIFEANRRCYGYRRLQASLARKSVIVSEKVVQRLMKQEHLAVARPRRRRFGSYLGEISPAPENLINRDFHADAPNVKWLTDITEFQIPAGKVYLSPIIDCFDGMVISWSIGTQPDAGLVNTMLDAAIGTVANGEERPIIHSDRGAHYRWPGWLTRISEARLVRSMSRKGCSQDNAACEGFFGRLKTELFYPRDWKAITIEQFVAEVDAYIRWYNEKRIKISLGSLSPVEYRQSLGLKLLEHHHHHH”, the protein production result is “not failed”. As for “MYTCKNKERMLMYKTIIMPVDVFEMELSDKAIRHAEFLAQDDGVIHLLHVLPGSASLSLHRFAADVRRFEEHLQHEAEERLQTMVSHFTIDPSRIKQHVRFGSVRDEVNELAKELDADVVVIGSRNPSISTHLLGSNASSVIRHANLPVLVVR”, the protein production entry is recorded as “failed”. The result for “MYTNVHSANNYQANLSNRSYGFKELAVLYFPNIAPASASIRLKQWIKDDVELLGSLEETNYHLSNRILTPKQRDLITTTFGSPFLEHHHHHH” reads “failed”.

Turning to “MYVFIEPNDLKDYLITVYDERNRAIRKQTQVYCFYLMIVLFVALFFFFPCLTIRDLVSYKLPLIFAYLYLIIRSLVAKKMEALGKITTNSQKPPFDTSQVLC”, the protein production entry is “failed”.

For the sequence “MYVTTGTNDILLTINDYVNKETASYQLTDISNNTLISEIIEKIKVLKNYTYSSTDLVLYFARVECKLSEKLSTYNKSNRKTIKLELYLSKLITINVRTLQSCGTGTSRCIPFWSFCFRQNIKIKIIDTCEVRVLKQKIYNLTDESTSIPVENIVLLYKGAPLNNFLTLKESELIDNCRIDYFVPLCYIYKKKKEESDEDEDENEEKLKEHTKSEDKKVDTQQNENVKSENVNNENVKNENVNNENVKNENVNNENVNNENVNIENVKNDNNDNAKKC”, the protein production result is on record as “failed”. The result for “MYYKQLDSLVFTDGESIAKARLASMTDMWFSSDLHLGHKFVASMRGFDDPDEHDEVILSNFENTIGPDDVLWILGDLSSGAHRAEERALGLIAERLGGVVKHLVPGNHDSCHPMYRHAYKRQRRFLEVFDSVQAFQRMKWDDEDVYLSHFPRPGQDHPGMESRFDDLRLRVPLLIHGHLHSQFPMTGPGQVDVGVEAWGLKPAPRELVQLKLWESLSEKILEHHHHHH” reads “failed”; that for “MYYVIFAQDIPNTLEKRLAVREQHLARLKQLQAENRLLTAGPNPAIDDENPSEAGFTGSTVIAQFENLQAAKDWAAQDPYVEAGVYADVIVKPFKKVF”, “not failed”.

For “NATTLPEALKLMQYIGDAIGTIRDPQELFRTVTDKLRLLFAFDSAVIITIDRERREASVFFEMLRFELPEQLRHQTRSIAGTWLEGHLDDRTVTVASIARDIPSFGADGAPLLWTLHELGMRQIVLSPLRSGGRVIGFLSFVSAEEKLWSDGDKSLLSGVSSSIAIAVSNALAYEELRQREAETSMQLAINNALFTI”, the protein production entry is recorded as “not failed”. The result for “NDQDAIQEKFYPPRFIQVPENMSIDEGRFCRMDFKVSGLPAPDVSWYLNGRTVQSDDLHKMIVSEKGLHSLIFEVVRASDAGAYACVAKNRAGEATFTVQLDVLAKEHKRAPMFIYKPQSKKVLEGDSVKLECQISAIPPPKLFWKRNNEMVQFNTDRISLYQDNTGRVTLLIKDVNKKDAGWYTVSAVNEAGVTTCNTRLDVTARPNQTLPAPKQLRVRPTFSKYLALNGKGLNVKQAFNPEGEFQRLAAQSGLYESEEL” reads “failed”; that for “NGADVQVSNIDYRLSRKELQQLLQEAFARHGKVKSVELSPHTDYQLKAVVQMENLQDAIGAVNSLHRYKIGSKKILVSLATGA”, “not failed”; that for “NGDPQWLVQAARTAVLRTYEYGRALLKGLFTDSPFNIDIFDTQLRFVGLNIAERRAGVFQGTEYSGHTMREMAPPGLLDVDALEARQRRVLETGKALIDTEVVGHPVANSPREYVWSESILPLRDPSGRVIALGHVVSDV”, “failed”. On to “NGNPIPMGYSQAVENNVQITNFALFSAAAIGVELCLFDEQNQETRLPMVRTENVWHLAVTGVKTGTEYAFRIHGEFANPQKLILDPYAKAVNGKPDLSSEESRSWFLLSDNRDNAHLAPRAVVIS”, for which the protein production result is reported as “failed”. As to “NGQSDVKHIGILQYVEHPSLTATRKGFIKELAKEGYKDGKNIKIEYKNAQGDQSNIQSISEKLIKDNKLVLGIATPAAQSLTTVSTETPILFTAVTDPVSAELVKSMKKPEGLATGTSDMSPIKKQVSLLRKVMPKVKRVGIMYTTSERNSEVQVKQAKKIFQEAGIKTSVKGISSTNDVQDTAKSLMSKTEVIFVPTDNIIASSVTLLGNLSKELKVPVVGGSADMVPSGLLFSYGADYEALGRQTARQAVKILKGKDVAKVPSEYPQNLKVVVNEDMAKELGIDVSSIK”, the protein production result is listed as “not failed”. The result for “NIILASRSLDKCYAIKESMLKKGLGEIGVEQVDADDTQALVALIQKYKPKVVINVALPYQDLTIMQACLETKTHYIDTANYEHPDLAKFEYKEQWAFDRAYKEVGILGVLGAGFDPGVTNAYVAHAQKHHFDTIHTLDILDCNAGDHKRPFATNFNPEINL” reads “failed”.
